{"source": "the Human Domainome abundance scans (Beltran et al. 2025)", "parents": {"B1": {"name": "PDZ and LIM domain protein 2, residues 284 to 339; numbered along this chain, Q96JY6 (parent)", "chain": "HTCEKCSTSIANQAVRIQEGRYRHPGCYTCADCGLNLKMRGHFWVGDELYCEKHAR"}}, "note": "± gives the uncertainty stated by the source.", "data": [{"variants_of": "B1", "experiment": "abundance fitness (aPCA) (normalised: wild type 0, dead -1); higher = more abundant; growth selection in yeast, the domain comes from the species named", "conditions": "Homo sapiens", "values": [{"variant": "HTCEKCSTSIANQAVRIQEGRYRHPGCYSCADCGLNLKMRGHFWVGDELYCEKHAR", "note": "[T29S]", "abundance fitness": "-0.092 ± 0.081"}, {"variant": "HTCEKCSTSIANQAVRIQEGRYRHPGCYRCADCGLNLKMRGHFWVGDELYCEKHAR", "note": "[T29R]", "abundance fitness": "-0.261 ± 0.057"}, {"variant": "HTCEKCSTSIANQAVRIQEGRYRHPGCYWCADCGLNLKMRGHFWVGDELYCEKHAR", "note": "[T29W]", "abundance fitness": "-0.758 ± 0.12"}, {"variant": "HTCEKCSTSIANQAVRIQEGRYRHPGCYVCADCGLNLKMRGHFWVGDELYCEKHAR", "note": "[T29V]", "abundance fitness": "-0.309 ± 0.076"}, {"variant": "HTCEKCSTSIANQAVRIQEGRYRHPGCYYCADCGLNLKMRGHFWVGDELYCEKHAR", "note": "[T29Y]", "abundance fitness": "-0.17 ± 0.065"}, {"variant": "HTCEKCSTSIANQAVRIQEGRYRHPGCYTCAHCGLNLKMRGHFWVGDELYCEKHAR", "note": "[D32H]", "abundance fitness": "0.027 ± 0.11"}, {"variant": "HTCEKCSTSIANQAVRIQEGRYRHPGCYTCAGCGLNLKMRGHFWVGDELYCEKHAR", "note": "[D32G]", "abundance fitness": "-0.178 ± 0.054"}, {"variant": "HTCEKCSTSIANQAVRIQEGRYRHPGCYTCACCGLNLKMRGHFWVGDELYCEKHAR", "note": "[D32C]", "abundance fitness": "-0.188 ± 0.12"}, {"variant": "HTCEKCSTSIANQAVRIQEGRYRHPGCYTCAACGLNLKMRGHFWVGDELYCEKHAR", "note": "[D32A]", "abundance fitness": "-0.361 ± 0.078"}, {"variant": "HTCEKCSTSIANQAVRIQEGRYRHPGCYTCAFCGLNLKMRGHFWVGDELYCEKHAR", "note": "[D32F]", "abundance fitness": "0.006 ± 0.082"}, {"variant": "HTCEKCSTSIANQAVRIQEGRYRHPGCYTCAICGLNLKMRGHFWVGDELYCEKHAR", "note": "[D32I]", "abundance fitness": "-0.284 ± 0.11"}, {"variant": "HTCEKCSTSIANQAVRIQEGRYRHPGCYTCAMCGLNLKMRGHFWVGDELYCEKHAR", "note": "[D32M]", "abundance fitness": "-0.022 ± 0.095"}, {"variant": "HTCEKCSTSIANQAVRIQEGRYRHPGCYTCALCGLNLKMRGHFWVGDELYCEKHAR", "note": "[D32L]", "abundance fitness": "-0.099 ± 0.075"}, {"variant": "HTCEKCSTSIANQAVRIQEGRYRHPGCYTCAPCGLNLKMRGHFWVGDELYCEKHAR", "note": "[D32P]", "abundance fitness": "-0.824 ± 0.17"}, {"variant": "HTCEKCSTSIANQAVRIQEGRYRHPGCYTCAECGLNLKMRGHFWVGDELYCEKHAR", "note": "[D32E]", "abundance fitness": "-0.171 ± 0.083"}, {"variant": "HTCEKCSTSIANQAVRIQEGRYRHPGCYTIADCGLNLKMRGHFWVGDELYCEKHAR", "note": "[C30I]", "abundance fitness": "-1.06 ± 0.36"}, {"variant": "HTCEKCSTSIANQAVRIQEGRYRHPGCYTEADCGLNLKMRGHFWVGDELYCEKHAR", "note": "[C30E]", "abundance fitness": "-0.834 ± 0.075"}, {"variant": "HTCEKCSTSIANQAVRIQEGRYRHPGCYTTADCGLNLKMRGHFWVGDELYCEKHAR", "note": "[C30T]", "abundance fitness": "-0.642 ± 0.07"}, {"variant": "HTCEKCSTSIANQAVRIQEGRYRHPGCYTNADCGLNLKMRGHFWVGDELYCEKHAR", "note": "[C30N]", "abundance fitness": "-0.788 ± 0.35"}, {"variant": "HTCEKCSTSIANQAVRIQEGRYRHPGCYTSADCGLNLKMRGHFWVGDELYCEKHAR", "note": "[C30S]", "abundance fitness": "-0.921 ± 0.15"}, {"variant": "HTCEKCSTSIANQAVRIQEGRYRHPGCYTKADCGLNLKMRGHFWVGDELYCEKHAR", "note": "[C30K]", "abundance fitness": "-1.13 ± 0.38"}, {"variant": "HTCEKCSTSIANQAVRIQEGRYRHPGCYTYADCGLNLKMRGHFWVGDELYCEKHAR", "note": "[C30Y]", "abundance fitness": "-0.956 ± 0.12"}, {"variant": "HTCEKCSTSIANQAVRIQEGRYRHPGCYTLADCGLNLKMRGHFWVGDELYCEKHAR", "note": "[C30L]", "abundance fitness": "-1.03 ± 0.14"}, {"variant": "HTCEKCSTSIANQAVRIQEGRYRHPGCYTGADCGLNLKMRGHFWVGDELYCEKHAR", "note": "[C30G]", "abundance fitness": "-0.618 ± 0.12"}, {"variant": "HTCEKCSTSIANQAVRIQEGRYRHPGCYTWADCGLNLKMRGHFWVGDELYCEKHAR", "note": "[C30W]", "abundance fitness": "-1.05 ± 0.23"}, {"variant": "HTCEKCSTSIANQAVRIQEGRYRHPGCYTPADCGLNLKMRGHFWVGDELYCEKHAR", "note": "[C30P]", "abundance fitness": "-0.671 ± 0.17"}, {"variant": "HTCEKCSTSIANQAVRIQEGRYRHPGCYTMADCGLNLKMRGHFWVGDELYCEKHAR", "note": "[C30M]", "abundance fitness": "-0.712 ± 0.13"}, {"variant": "HTCEKCSTSIANQAVRIQEGRYRHPGCYTAADCGLNLKMRGHFWVGDELYCEKHAR", "note": "[C30A]", "abundance fitness": "-1.01 ± 0.082"}, {"variant": "HTCEKCSTSIANQAVRIQEGRYRHPGCYTVADCGLNLKMRGHFWVGDELYCEKHAR", "note": "[C30V]", "abundance fitness": "-0.789 ± 0.19"}, {"variant": "HTCEKCSTSIANQAVRIQEGRYRHPGCYTHADCGLNLKMRGHFWVGDELYCEKHAR", "note": "[C30H]", "abundance fitness": "-0.669 ± 0.47"}, {"variant": "HTCEKCSTSIANQAVRIQEGRYRHPGCYTCYDCGLNLKMRGHFWVGDELYCEKHAR", "note": "[A31Y]", "abundance fitness": "-0.226 ± 0.17"}, {"variant": "HTCEKCSTSIANQAVRIQEGRYRHPGCYTCHDCGLNLKMRGHFWVGDELYCEKHAR", "note": "[A31H]", "abundance fitness": "-0.257 ± 0.1"}, {"variant": "HTCEKCSTSIANQAVRIQEGRYRHPGCYTCIDCGLNLKMRGHFWVGDELYCEKHAR", "note": "[A31I]", "abundance fitness": "-0.454 ± 0.19"}, {"variant": "HTCEKCSTSIANQAVRIQEGRYRHPGCYTCDDCGLNLKMRGHFWVGDELYCEKHAR", "note": "[A31D]", "abundance fitness": "-0.175 ± 0.11"}, {"variant": "HTCEKCSTSIANQAVRIQEGRYRHPGCYTCVDCGLNLKMRGHFWVGDELYCEKHAR", "note": "[A31V]", "abundance fitness": "-0.029 ± 0.075"}, {"variant": "HTCEKCSTSIANQAVRIQEGRYRHPGCYTCWDCGLNLKMRGHFWVGDELYCEKHAR", "note": "[A31W]", "abundance fitness": "-0.052 ± 0.12"}, {"variant": "HTCEKCSTSIANQAVRIQEGRYRHPGCYTCSDCGLNLKMRGHFWVGDELYCEKHAR", "note": "[A31S]", "abundance fitness": "-0.103 ± 0.085"}, {"variant": "HTCEKCSTSIANQAVRIQEGRYRHPGCYTCGDCGLNLKMRGHFWVGDELYCEKHAR", "note": "[A31G]", "abundance fitness": "0.019 ± 0.08"}, {"variant": "HTCEKCSTSIANQAVRIQEGRYRHPGCYTCRDCGLNLKMRGHFWVGDELYCEKHAR", "note": "[A31R]", "abundance fitness": "0.047 ± 0.067"}, {"variant": "HTCEKCSTSIANQAVRIQEGRYRHPGCYTCMDCGLNLKMRGHFWVGDELYCEKHAR", "note": "[A31M]", "abundance fitness": "0.027 ± 0.087"}, {"variant": "HTCEKCSTSIANQAVRIQEGRYRHPGCYTCCDCGLNLKMRGHFWVGDELYCEKHAR", "note": "[A31C]", "abundance fitness": "-0.146 ± 0.12"}, {"variant": "HTCEKCSTSIANQAVRIQEGRYRHPGCYTCLDCGLNLKMRGHFWVGDELYCEKHAR", "note": "[A31L]", "abundance fitness": "0.119 ± 0.079"}, {"variant": "HTCEKCSTSIANQAVRIQEGRYRHPGCYTCPDCGLNLKMRGHFWVGDELYCEKHAR", "note": "[A31P]", "abundance fitness": "-0.238 ± 0.084"}, {"variant": "HTCEKCSTSIANQAVRIQEGRYRHPGCYTCNDCGLNLKMRGHFWVGDELYCEKHAR", "note": "[A31N]", "abundance fitness": "0.086 ± 0.12"}, {"variant": "HTCEKCSTSIANQAVRIQEGRYRHPGCYTCEDCGLNLKMRGHFWVGDELYCEKHAR", "note": "[A31E]", "abundance fitness": "0.082 ± 0.12"}, {"variant": "HTCEKCSTSIANQAVRIQEGRYRHPGCYTCTDCGLNLKMRGHFWVGDELYCEKHAR", "note": "[A31T]", "abundance fitness": "-0.099 ± 0.095"}, {"variant": "HTCEKCSTSIANQAVRIQEGRYRHPGCYTCFDCGLNLKMRGHFWVGDELYCEKHAR", "note": "[A31F]", "abundance fitness": "0.039 ± 0.13"}]}]}
